{"source": "patent US20260151453A1", "about": "“COMBINATION THERAPY FOR THE TREATMENT OF CANCER” (PEPTOMYC, S.L., priority 2022, published 2026)", "molecules": {"B1": {"name": "Omomyc: Purified recombinant polypeptide of SEQ ID NO: 4: mutated bHLHZip domain of Myc (E61T, E68I, R74Q, R75N) with N-terminal methionine (protein)", "chain": "TEENVKRRTHNVLERQRRNELKRSFFALRDQIPELENNEKAPKVVILKKATAYILSVQAETQKLISEIDLLRKQNEQLKHKLEQLRNSCA"}}, "key": {"MDA-MB-231 cells [1]": {"tested_on": "MDA-MB-231 cells", "assay": "Viability of MDA-MB-231 TNBC cells treated alone and in combination for 5 days; synergy score by SynergyFinder.org", "type": "cell-based", "settings": "single agent, 5 days (FIG. 1A)", "experimental": "Triple negative breast cancer (TNBC) cell lines MDA-MB-231, SUM149 and MX-1 were treated with increasing concentrations of Olaparib or Talazoparib and the Omomyc peptide sequence SEQ ID NO: 4, alone and in combination, for 5 days.\nThen synergy score was calculated by SynergyFinder.org after having carried out 3 biological replicates.\n(§1) Synergy scores can be interpreted as the average excess response due to drug interactions. Synergy scores close to 0 give limited confidence in synergy or antagonism. So, when the synergy scores are: less than −10, the interaction between two drugs is likely to be antagonistic. From −10 to 10, the interaction between two drugs is likely to be additive. Greater than 10, the interaction between two drugs is likely to be synergistic."}, "MIA-PACA-2 cells": {"tested_on": "MIA-PACA-2 cells", "assay": "Viability of PDAC MIA-PACA-2 cells treated alone and in combination for 5 days; synergy score by SynergyFinder.org", "type": "cell-based", "settings": "MIA-PACA-2 cells, Omomyc added to Olaparib", "from_the_text": "as §1\nPancreatic ductal adenocarcinoma (PDAC) MIA-PACA-2 cells were treated with increasing concentrations of Olaparib and the Omomyc peptide sequence SEQ ID NO: 4 alone and in combination, for 5 days.\nThen synergy score was calculated by SynergyFinder.org after having carried out 3 biological replicates as described above."}, "[2]": {"tested_on": "SUM149 cell-derived xenograft (CDX)", "assay": "SUM149 cell-derived xenograft (CDX) model, orthotopic in mammary fat-pad, tumour growth", "type": "in vivo", "settings": "SUM149 CDX mice, 4 weeks; Omomyc 50 mg/kg intravenous once a week; Olaparib 50 mg/kg oral gavage 6 times a week; preliminary", "experimental": "SUM149 cell-derived xenograft (CDX) model mice were used for in vivo studies. Each mouse was inoculated orthotopically in the mammary fat-pad with 5 million cells. As the tumours reached 100 mm^3, mice were randomised in 4 treatment groups. Specifically, mice were treated with Omomyc once a week (50 mg/kg, intravenous), with Olaparib 6 times a week (50 mg/kg oral gavage), with the combination of the 2 drugs (combo) or with vehicle alone for 4 weeks. Relative volume was calculated as a percentage of tumour growth from the day of randomization and beginning of treatments. At end-point the average of the groups were respectively: vehicle 901.8%, Omomyc 663.6%, Olaparib 623.6%, and combination 335.8%."}, "MDA-MB-231 cells [3]": {"tested_on": "MDA-MB-231 cells", "assay": "Microarray analysis of gene expression in MDA-MB-231 cells", "type": "cell-based", "settings": "data not shown"}}, "data": [{"molecule": "B1", "values": [{"measurement": "viability of cells", "setting": "MDA-MB-231 cells [1]", "result": "significantly reduces viability"}, {"measurement": "reversal of olaparib resistance", "setting": "MIA-PACA-2 cells", "result": "able to revert olaparib resistance"}, {"measurement": "Relative volume, percentage of tumour growth from the day of randomization (group average at end-point)", "setting": "[2]", "result": 663.6, "unit": "%"}, {"measurement": "expression of homologous recombination (HR-) and BRCA1/2-deficiency related genes and pathways", "setting": "MDA-MB-231 cells [3]", "result": "reduces the expression"}]}]}
